# Results from article PMC12436594.
# Biological target: PvLDH (lactate dehydrogenase) (Plasmodium vivax) (UniProt Q4PRK9)
# Test: flow cytometry (Ni-NTA beads)
# [1] = dUCOTc replaces every T after the 20-nt forward primer
sequence,measurement,setting,value
CACTCACGTCAGTGACATGCAGGTCCTCTCGCCCCCAGTGACTTGCGTGGTCAGAAATTTCGCACCAC [N15 COTc aptamer],Kd,[1],5.6 nM
CACTCACGTCAGTGACATGCCAAGCGAAGTTGTGCGCCCGCGTCGTGGTCGTCAGAAATTTCGCACCAC [N5 COTc aptamer],Kd,[1],14.4 nM
CACTCACGTCAGTGACATGCGCATTACGCAGCGCTGCGCAGCGAGTACCGGTCAGAAATTTCGCACCAC [N0 COTc aptamer],Kd,dUCOTc (COT-carboxylate-modified dU) replaces every T after the 20-nt forward primer,3.7 nM
